This data set is described as follows: protein stability index of a GFP-peptide fusion (GPS, HEK-293T) (PSI 1-6); higher = more stable.
[1] abbreviates: treatment: DMSO, c terminus: a fixed tail appended.
The mark [2] stands for this setting: treatment: MLN4924 1 uM, 8 h, c terminus: a fixed tail appended.

± gives the standard deviation.
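Also: 24-mer peptide tiles fused after GFP, lentivirally expressed, FACS-sorted into six equal bins by GFP/DsRed ratio, decoded by Illumina sequencing, PSI is the read-weighted mean bin number.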

Regarding ARYGHLDVVEYLVDRCGASVEAGG [FEM1A], the protein stability index was determined as 2.81 ± 0.16 under setting [1] and 2.98 ± 0.43 under setting [2].

With DCQAGLNFADEDEAQAFRALVQEK [WAS], the protein stability index came out at 5.17 ± 0.22 under setting [1] and 5.08 ± 0.16 under setting [2].

VSRLTDTTKFTGSHKERFDPSGKG [TPPP]: the protein stability index is, setting by setting: under setting [1], 4.39 ± 0.1; under setting [2], 4.5 ± 0.22.

LSSGMAVAGMPTAYDLSSVIASGS [CARM1]: the protein stability index stood at 3.02 ± 0.22 under setting [1] and 2.9 ± 0.41 under setting [2].

For SSGGSSGSSSDNRTYRYSNRYCGG [DYRK1B], the protein stability index turned out to be 4.04 ± 0.23 under setting [1] and 4.07 ± 0.12 under setting [2].

Consider DLSDLLQVDSLRPASFPTWGCDLG [BRF1], for which the protein stability index by setting is: under setting [1], 2.53 ± 0.28; under setting [2], 2.73 ± 0.31.

Turning to HLAVDKNTTCVGRYPVCKFPSLQV [FEM1C], the protein stability index is, setting by setting: under setting [1], 2.46 ± 0.25; under setting [2], 2.44 ± 0.26.

On to PESSALQPPPQSSEGLVGALMHVM [WAS], for which the protein stability index under setting [1] came to 3.77 ± 0.17 and the protein stability index under setting [2] is 3.58 ± 0.56.

Take SAAVRGHPRALPPDARPHRRPHEL [HAGHL]: the protein stability index under setting [1] worked out at 4.404 ± 0.036 and the protein stability index under setting [2] was found to be 4.47 ± 0.13.

For VMKLEISPHRKRSDDSDEDEPCAI [DLC1], the protein stability index is, setting by setting: under setting [1], 5.21 ± 0.52; under setting [2], 4.93 ± 0.28.

As for YRTVVRPTYKVMYKIVTAREWRCC [EMID1], the protein stability index reads like this: under setting [1], 2.71 ± 0.79; under setting [2], 2.38 ± 0.44.

As to SYSRLCRESGAEPQEAVLQQLHQL [LRRC45], the protein stability index by setting is: under setting [1], 3.71 ± 0.29; under setting [2], 3.71 ± 0.19.

For the sequence NKTPGAPESSALQPPPQSSEGLVG [WAS], the protein stability index under setting [1] stood at 5.41 ± 0.35 and the protein stability index under setting [2] was found to be 5.3 ± 0.31.

Regarding FSGSLVAALSATGPRFLAYFGSFA [TMEM175], the protein stability index amounted to 2.91 ± 0.11 under setting [1] and 2.61 ± 0.37 under setting [2].

For the sequence LEFDLLIFSFGQLPLALVTWVPMF [SOAT2], the protein stability index was 3.17 ± 0.49 under setting [1] and 3.02 ± 0.33 under setting [2].

Regarding EEYSQIIYSTKLYRFFKYIENRDV [BTBD10], the protein stability index by setting is: under setting [1], 1.64 ± 0.19; under setting [2], 1.87 ± 0.4.

Take PQGLFRGGKSGELEQEEERLSKEW [CHGA]: the protein stability index is, setting by setting: under setting [1], 5.19 ± 0.39; under setting [2], 5.42 ± 0.19.

With HPKDGPSPGGTLMDLSERQEVSSV [DLC1], the protein stability index worked out at 5.15 ± 0.25 under setting [1] and 5.23 ± 0.21 under setting [2].

For the sequence GALTPTPAPTTTTATREEASTSLP [CLPTM1], the protein stability index amounted to 5.28 ± 0.33 under setting [1] and 5.58 ± 0.22 under setting [2].

Turning to LYWTKWYNNQSLGHGSHSFIYYEN [PKD2L1], the protein stability index runs as follows: under setting [1], 2.53 ± 0.68; under setting [2], 2.41 ± 0.47.

Consider ITRESHTHRDRPSQQQPLRNQVVS [CSNK1G1], for which the protein stability index is, setting by setting: under setting [1], 4.49 ± 0.21; under setting [2], 4.37 ± 0.23.

Consider SRVTASSGITIPKPPKPPDKPLMP [SMARCE1], for which the protein stability index came out at 3.78 ± 0.25 under setting [1] and 3.94 ± 0.18 under setting [2].

Take ELNKKMTNIRLPNVPSSSLPAQPN [CHMP4C]: the protein stability index reads like this: under setting [1], 3.66 ± 0.4; under setting [2], 3.63 ± 0.18.

Regarding AGNCPECGTPLRKSNFRVQLFEDP [MNAT1], the protein stability index came to 3.62 ± 0.33 under setting [1] and 4.08 ± 0.2 under setting [2].

For the sequence ATGMFLQYTVPGTEGVTQLKLTVV [ZFYVE21], the protein stability index reads like this: under setting [1], 3.29 ± 0.56; under setting [2], 2.9 ± 0.46.

Regarding DLMGVLTKGVREVERALQLPREPG [FEM1A], the protein stability index by setting is: under setting [1], 2.82 ± 0.17; under setting [2], 2.69 ± 0.37.

Consider PTICMAYLMKTKQFRLKEAFDYIK [DUSP5], for which the protein stability index under setting [1] stood at 2.27 ± 0.47 and the protein stability index under setting [2] was 2.54 ± 0.31.

Consider LRLPMLNTEVVQVAAGRTQKAGVT [NEK8], for which the protein stability index is, setting by setting: under setting [1], 3.1 ± 0.33; under setting [2], 3.47 ± 0.23.

PGDMLLQVNEINFENMSNDDAVRV [DVL3]: the protein stability index by setting is: under setting [1], 4.4 ± 0.35; under setting [2], 4.37 ± 0.21.

Consider CCPTSREAAVEALELLGATYVDKK [FEM1A], for which the protein stability index reads like this: under setting [1], 4.28 ± 0.06; under setting [2], 4.3 ± 0.049.

In the case of QNPPVIKSSGRFLWIKFFAAGELE [NETO1], the protein stability index by setting is: under setting [1], 2.57 ± 0.53; under setting [2], 2.11 ± 0.19.

Take TSVEECSQKGCLALSLLELLGFNL [CLCN6]: the protein stability index runs as follows: under setting [1], 2.57 ± 0.68; under setting [2], 2.37 ± 0.15.

Take EEAWVKIENLAKANPQYTVYSQAS [PPP2R5C]: the protein stability index reads like this: under setting [1], 3.29 ± 0.16; under setting [2], 3.48 ± 0.18.

In turn, KVVSRAENLSVPVIGALLRFNQAI [LPCAT4] displayed a protein stability index under setting [1] of 2.15 ± 0.54 and a protein stability index under setting [2] of 2.18 ± 0.19.

Consider SSSSASADLLAGFGGSFMAPSPSP [SNAP91], for which the protein stability index runs as follows: under setting [1], 4.24 ± 0.1; under setting [2], 4.3 ± 0.24.

As to IKSSLKDEYQYSFWDLFRSKDNMR [SLC2A12], the protein stability index by setting is: under setting [1], 2.39 ± 0.23; under setting [2], 2.3 ± 0.21.

For the sequence SKRMTFQMPKFDLGPLLSEPLVLY [MYOZ1], the protein stability index under setting [1] was determined as 2.36 ± 0.39 and the protein stability index under setting [2] was 2.26 ± 0.28.

As to TLLAIGTKLPENQAIQMRLVDVAC [INTS4], the protein stability index under setting [1] turned out to be 2.12 ± 0.19 and the protein stability index under setting [2] was determined as 2.09 ± 0.15.

As for CLMIAAYKGHTDVVRYLLEQRADP [FEM1B], the protein stability index came to 2.27 ± 0.14 under setting [1] and 2.35 ± 0.17 under setting [2].

In the case of FQMVLEGGVCCTVTLNFNVPGEFK [GFOD1], the protein stability index reads like this: under setting [1], 3.1 ± 0.41; under setting [2], 3.14 ± 0.31.

In the case of DMNGKSLHGKAIKVEQAKKPSFQS [RBMY1A1], the protein stability index was found to be 3.16 ± 0.2 under setting [1] and 3.61 ± 0.2 under setting [2].

As to EFDSPHEDIVFETDHILESLYRDI [STX11], the protein stability index is, setting by setting: under setting [1], 3.59 ± 0.38; under setting [2], 3.58 ± 0.25.

In the case of NQNSWGTGEDVKVILKNSQGEEVA [LMNB1], the protein stability index under setting [1] was found to be 4.99 ± 0.22 and the protein stability index under setting [2] was 4.85 ± 0.13.

Turning to TLQNGRRHIHHLGNQLQLNQHCLD [BRF1], the protein stability index amounted to 3.1 ± 0.034 under setting [1] and 3.31 ± 0.097 under setting [2].

As for SQIQGLIGSVEEQLAQLRCEMEQQ [KRT16], the protein stability index is, setting by setting: under setting [1], 4.387 ± 0.042; under setting [2], 4.52 ± 0.28.

On to EEEDLRRRLKYFFMSPCDKFRAKG [MCOLN1], for which the protein stability index runs as follows: under setting [1], 2.65 ± 0.41; under setting [2], 3.15 ± 0.5.

QKITAIITFPSLESCEEKNQLILT [WDR41]: the protein stability index is, setting by setting: under setting [1], 2.29 ± 0.16; under setting [2], 2.22 ± 0.26.

PVAAATAAEGEGSPPAVAAVAGPP [ANKRD17] returned a protein stability index under setting [1] of 5.54 ± 0.19 and a protein stability index under setting [2] of 5.54 ± 0.094.

VSSSEQLQSYQAEIIELRRTVNAL [KRT33B]: the protein stability index was 3.12 ± 0.22 under setting [1] and 3.2 ± 0.42 under setting [2].

Turning to AVNLIESGACGAFVHGLEDEMYEV [INTS4], the protein stability index is, setting by setting: under setting [1], 3.41 ± 0.24; under setting [2], 3.45 ± 0.33.

For QQAALPRLSRRMASQHSYPLNRFS [CBY2], the protein stability index under setting [1] was 3.38 ± 0.31 and the protein stability index under setting [2] amounted to 3.45 ± 0.31.

Turning to PETEAVSSSQEIPTMPQPIEKVSV [ZMYND11], the protein stability index was 5.24 ± 0.33 under setting [1] and 5.36 ± 0.26 under setting [2].

Regarding FKSFQYPLPWSECPVVRNGSVAVV [SLC6A17], the protein stability index is, setting by setting: under setting [1], 2.07 ± 0.29; under setting [2], 2.09 ± 0.56.

For AGNNEHCGNIKAPSLQAWNDAPCD [CD207], the protein stability index runs as follows: under setting [1], 4.75 ± 0.33; under setting [2], 4.71 ± 0.13.

TDGDHNVYPRPPEPREFSSRNFGV [ZC2HC1C] had a protein stability index under setting [1] of 3.89 ± 0.23 and a protein stability index under setting [2] of 3.97 ± 0.18.

Take HTFRATFQEPLYPALRLWEGAISI [TRIM14]: the protein stability index worked out at 2.85 ± 0.57 under setting [1] and 2.69 ± 0.71 under setting [2].

ERYMCSRFFIDFPHIEEQQKKIES [TENT5D]: the protein stability index worked out at 3.21 ± 0.3 under setting [1] and 3.23 ± 0.16 under setting [2].

For the sequence SPSHKGIAAPHAGANVKPRNSTPP [ZC2HC1A], the protein stability index stood at 4.92 ± 0.092 under setting [1] and 4.86 ± 0.54 under setting [2].

In the case of VQQDPALSSNREAHQHRDKMQQSK [CSNK1G3], the protein stability index by setting is: under setting [1], 5.16 ± 0.54; under setting [2], 5.27 ± 0.21.

Sequence AYRGNCKDVSRCVAERKYTQEQAR [SMOC2] yielded a protein stability index under setting [1] of 3.06 ± 0.19 and a protein stability index under setting [2] of 3.38 ± 0.46.

MYRWKLSSHEPCSATCTTGVMSAY [ADAMTSL2]: the protein stability index was 2.24 ± 0.74 under setting [1] and 2.2 ± 0.73 under setting [2].

Turning to KEKEQENERKVAQLAEENERLKQE [DDIT3], the protein stability index is, setting by setting: under setting [1], 5.52 ± 0.1; under setting [2], 5.55 ± 0.15.

Consider MSCRDRTQEFLSACKSLQTRQNGI [STX5], for which the protein stability index came to 3.1 ± 0.21 under setting [1] and 3.1 ± 0.36 under setting [2].

With PLMKPHRPWADTCSSSGKDGNLCL [HESX1], the protein stability index under setting [1] turned out to be 2.74 ± 0.16 and the protein stability index under setting [2] turned out to be 2.69 ± 0.21.

For RTVQSLEIDLDSMRNLKASLENSL [KRT18], the protein stability index reads like this: under setting [1], 3.14 ± 0.45; under setting [2], 3.25 ± 0.27.

Sequence FSIPPTNHEIMPGGSVNITCVAVG [PTPRD] had a protein stability index under setting [1] of 2.22 ± 0.17 and a protein stability index under setting [2] of 2.06 ± 0.14.

On to TWGKNKPGIGAVILKRFCWLLLQ [FAN1], for which the protein stability index is, setting by setting: (treatment: DMSO, c terminus: native) 3.45 ± 0.45; (treatment: MLN4924 1 uM, 8 h, c terminus: native) 2.87 ± 0.53.

For QDSPGPHEALSRLWELCHLWLRPE [ZNF396], the protein stability index reads like this: under setting [1], 2.33 ± 0.14; under setting [2], 2.15 ± 0.079.

With SPNLNVVDGRLTYPTCGIGYPVSS [SASS6], the protein stability index was 3.06 ± 0.44 under setting [1] and 3.14 ± 0.4 under setting [2].

Turning to KREREKEDIALNKHRSRRKWCFWN [RHOBTB1], the protein stability index was found to be 2.65 ± 0.29 under setting [1] and 3.07 ± 0.51 under setting [2].

Take PETQLFWDKEPWFWHDTLTEQLWR [TLE6]: the protein stability index reads like this: under setting [1], 2.7 ± 0.57; under setting [2], 2.27 ± 0.36.

Turning to DKHGCPAYVSPEILNTTGTYSGKA [TRIB1], the protein stability index is, setting by setting: under setting [1], 4.44 ± 0.26; under setting [2], 4.52 ± 0.12.

These data come from the supplement of paper PMC10567573.
